# Results as given in the RNAGym collection of RNA variant scans (doi:10.1073/pnas.2313332121).
# Fewer inactive variants are shown than the library holds.
# B1: TPR 5TU (parent)
# chain: GGAUCUUCUCGAUCUAACAAAAAAGACAAAUCUGCCACAAAGCUUGAGAGCAUCUUCGGAUGCAGAGGCGGCAGCCUUCGGUGGCGCGAUAGCGCCAACGUUCUCAACUAUGACACGCAAAACGCGUGCUCCGUUGAAUGGAGUUUAUCAUG
# Variants of: B1
# Experiment: polymerase ribozyme fitness, log enrichment relative to wild type (log ratio); higher = more active; in vitro selection for triplet polymerase activity
# Procedure, shortened: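 To select mutant libraries of each subunit of a heterodimeric triplet polymerase ribozyme, built by PCR and transcribed, each was annealed with a biotinylated primer, partner subunit and triplets, then incubated frozen at −7 °C. Extended constructs were gel-excised, captured on streptavidin beads and amplified by RT-PCR, in one round carried out in triplicate. Illumina sequencing of input and output libraries kept genotypes with ≥10 input reads and ≥1 read per output. Fitness is the base-2 logarithm of genotype enrichment relative to wild-type enrichment, from inverse-variance-weighted replicate averages.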
row,Variant,polymerase ribozyme fitness (log ratio)
1,G70A G86U G88U C99G C105G C114G,≤ -4.2
2,A30C A73U C85G C93G C96G C149U,≤ -4.2
3,A12C A21G A122G G140U,-4.13
4,C93G C123U G140U,-4.17
5,U44A C54U,-3.59
6,U44G U55A C93A A120G,≤ -4.2
7,A52G U55C C105G U109A,-1.97
8,U55G C69A C87U C105A A138U,≤ -4.2
9,A91C G100U,≤ -4.2
10,C36A A110U A122U,≤ -4.2
11,U55G A73U U146C,-1.74
12,U4G G141U,0.552
13,A41U U53G U56C U146C U151G,≤ -4.2
14,C27U U53A G70U,-3.43
15,A41C G81A G92U G136U,-3.13
16,C18U A60U G92U C93U C95U C125U,-4.09
17,C5G A17G U61A G67A C93A C95U G140U,≤ -4.2
18,U53A G92C,-3.01
19,A49C G71C,≤ -4.2
20,C35G G48A G58U C79U C85U,≤ -4.2
21,U55A C85A,-2.26

row,Variant,polymerase ribozyme fitness (log ratio)
1,U53A A73G U78C G133A,≤ -4.2
2,A49U G59U,-0.317
3,U55A A119G U148G,-3.77
4,C8U C63U C72U C123U G126U,≤ -4.2
5,A3G G42C C69G C85G C118U C129U,≤ -4.2
6,G59A A60G U134C,-0.132
7,A91C A98U C116A A121G U130G,≤ -4.2
8,C35A C54U G94U U135G G140C,≤ -4.2
9,G48C U134A,-1.01
10,C96A C118A,-0.912
11,C116A A142G,0.244
12,A98G C99G A122U,-1.25
13,A12C A29C G81U C87A,≤ -4.2
14,C87U A150G,-1.2
15,A37G U55A A73G U111G,≤ -4.2
16,C27G A28U U55G U61A C76A C96U C116G G133C,≤ -4.2
17,A12U G48U C51A G58C U61G C114U,≤ -4.2
18,G58A A89U G94U,-3.19
19,C5A C14G,-0.996
20,A21G U56A,-0.198
21,A60C G83A C108G,≤ -4.2

row,Variant,polymerase ribozyme fitness (log ratio)
1,A37U A40G C76G C93A C103G,≤ -4.2
2,A22C C87U C123G,-0.845
3,U6A U15G G46C C76U C93G,≤ -4.2
4,C57U G71U,-1.94
5,C27U G50U C95U C114U C118G A138U,≤ -4.2
6,A41G G74C C75U C76A A91C G92U U134A G141C,≤ -4.2
7,U44G C57U A91U U109C,≤ -4.2
8,C5U A41U G50A,-2.81
9,A16G A17U A26U A41U C96A U102A G143C,≤ -4.2
10,G46U G50C A73G C76G A113U U139C,≤ -4.2
11,A29C C69G C103G U151G,≤ -4.2
12,A16U C18A A22U G48U U56G A66G G84U U144A,≤ -4.2
13,C72A A147C,≤ -4.2
14,A19U G92U U102A U146C,-2.35
15,A16C A22C C54U A113U,-4.06
16,A73U C93U A120G,-2.61
17,G50C G94U A121U G128U,≤ -4.2
18,A19U U56A G86A A107G,≤ -4.2
19,G86A C93G C99G U146A,-3.32
20,C103A A106G,-0.927
21,A3U C18G A22G G94C C131U,≤ -4.2

row,Variant,polymerase ribozyme fitness (log ratio)
1,C38U C54U G58C C85U C105G U144C,-2.92
2,A49U G50C C57U A89C C96A,-3.23
3,A24U C93U C125G G133A A142G A150U,≤ -4.2
4,A52C C95A C132G G141A A150G,≤ -4.2
5,G68A G74A U90C,≤ -4.2
6,G88A C96U C108G,≤ -4.2
7,A17C G50U C54U C96G,-1.28
8,U55A C93U C95A,-2.89
9,A37C A41U G50C G81U C95U U111A C118G U127C A142C,≤ -4.2
10,A19C C51G U55G C93U G126C,-2.57
11,U4C C18U U53A A73G U134C,-2.31
12,C36G U45G C54U A89U G94U C125G G126A,≤ -4.2
13,G25A C96G C99G G152U,≤ -4.2
14,U77A C96G G141U,≤ -4.2
15,A22U C54U G88C A106G U146A,≤ -4.2
16,U15C A41C C57U C76U C93U,-0.0442
17,U33C C57U U61A G84A U101G G140U U145A,-4
18,U56A G84A A91G,-3.59
19,A19C A23G A30C A91G A138U U139G,-4.05
20,A23U A24U U56A A106C A150U,-3.89
21,A49C G80U,-4.02
